Test results: patent US20120316071A1 (published 2012)

B1: Fab VH1-8_IGHD2-2*01_IGHJ6*01 & L12_IGKJ1*01 (Fab, V domains shown)
VH: QVQLVQSGAEVKKPGASVKVSCKASGYTFTSYDINWVRQATGQGLEWMGWMNPNSGNTGYAQKFQGRVTMTRNTSISTAYMELSSLRSEDTAVYYCARGGYCSSTSCYADYYYYYGMDVWGQGTTVTVSS
VL: not shown
B2: Fab VH1-46_IGHD6-6*01_IGHJ1*01 & L6_IGKJ1*01 (Fab, V domains shown)
VH: QVQLVQSGAEVKKPGASVKVSCKASGYTFTSYYMHWVRQAPGQGLEWMGIINPSGGSTSYAQKFQGRVTMTRDTSTSTVYMELSSLRSEDTAVYYCAREEYSSSSAEYFQHWGQGTLVTVSS
VL: not shown
notes: Tested as a Fab expressed in E. coli; The heavy chain came from Plasmid A (CH1 with His6 and Flag tags) and the kappa light chain from Plasmid C (kappa CL); also called Wt; wildtype
B3: Fab VH1-46_IGHD6-6*01_IGHJ1*01 S102A/S103P/S104F (APF) & L6_IGKJ1*01 (Fab, V domains shown)
VH: QVQLVQSGAEVKKPGASVKVSCKASGYTFTSYYMHWVRQAPGQGLEWMGIINPSGGSTSYAQKFQGRVTMTRDTSTSTVYMELSSLRSEDTAVYYCAREEYAPFSAEYFQHWGQGTLVTVSS
VL: not shown
notes: Tested as a Fab expressed in E. coli; the constant parts (CH1 with His6/Flag tags, kappa CL) come from Plasmids A and C; also called APF triple mutant; H:APF & L:wt

Tests used:
[1] = target: T1, rHuman ErbB2/Fc Chimera, CF (R&D Systems Cat#1129-ER) (human, UniProt P04626 23-652); test: MSD Multispot ECL, antigen spotted on plate, Fab 8.1 nM; blank spot 435
T1 construct: Bought reagent; also called human epidermal growth factor 2 receptor; Fc part of the bought chimera not given

[2] = target: T2, Recombinant Human DLL4 (R&D Systems Cat#1506-D4/CF) (human, UniProt Q9NR61 27-529); test: as above
T2 construct: Bought recombinant protein; also called rHuman DLL4; delta-like protein 4

[3] = target: T3, rHuman IGF-1 sR (insulin-like growth factor-1 soluble receptor), CF (R&D Systems Cat#391-GR) (human, UniProt P08069 31-932); test: ECL multispot (MSD), antigen spotted on plate, Fab at 5.00 (column head: Fab [µM])
T3 construct: Bought recombinant soluble receptor

[4] = target: T4, rHuman Erythropoietin R/Fc Chimera, CF (R&D Systems Cat#963-ER) (human, UniProt P19235 25-250); test: as above
T4 construct: Bought recombinant protein; also called EPO R; EPO R/Fc; Fc part of the bought chimera not given
T4 sequence (looked up): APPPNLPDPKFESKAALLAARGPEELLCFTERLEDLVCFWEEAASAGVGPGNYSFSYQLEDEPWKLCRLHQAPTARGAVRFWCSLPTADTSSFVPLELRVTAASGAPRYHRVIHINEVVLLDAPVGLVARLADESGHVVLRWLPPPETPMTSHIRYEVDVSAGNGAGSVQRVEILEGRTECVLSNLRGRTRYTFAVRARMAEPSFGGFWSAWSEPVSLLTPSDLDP

[5] = target: T5, rHuman Notch-1/Fc Chimera, CF (R&D Systems Cat#3647-TK) (human, UniProt P46531 19-526); test: as above
T5 construct: Bought recombinant chimera; Fc part of the bought chimera not given

[6] = target: T6, rHuman CD44/Fc Chimera, CF (R&D Systems Cat#3660-CD) (human, UniProt P16070 21-220); test: as above
T6 construct: Bought recombinant protein; Fc part of the bought chimera not given

[7] = target: T7, Recombinant Human DLL4 (R&D Systems Cat#1506-D4/CF) (human, UniProt Q9NR61 27-524); test: as above
T7 construct: Bought recombinant protein; also called delta-like protein 4; rHuman DLL4

[8] = target: T8, rHuman HGF R/c-MET/Fc Chimera, CF (R&D Systems Cat#358-MT/CF) (human, UniProt P08581 25-932); test: as above
T8 construct: Bought recombinant protein; also called HGF R/Fc; Fc part of the bought chimera not given
T8 sequence (P08581 25-932, change not shown): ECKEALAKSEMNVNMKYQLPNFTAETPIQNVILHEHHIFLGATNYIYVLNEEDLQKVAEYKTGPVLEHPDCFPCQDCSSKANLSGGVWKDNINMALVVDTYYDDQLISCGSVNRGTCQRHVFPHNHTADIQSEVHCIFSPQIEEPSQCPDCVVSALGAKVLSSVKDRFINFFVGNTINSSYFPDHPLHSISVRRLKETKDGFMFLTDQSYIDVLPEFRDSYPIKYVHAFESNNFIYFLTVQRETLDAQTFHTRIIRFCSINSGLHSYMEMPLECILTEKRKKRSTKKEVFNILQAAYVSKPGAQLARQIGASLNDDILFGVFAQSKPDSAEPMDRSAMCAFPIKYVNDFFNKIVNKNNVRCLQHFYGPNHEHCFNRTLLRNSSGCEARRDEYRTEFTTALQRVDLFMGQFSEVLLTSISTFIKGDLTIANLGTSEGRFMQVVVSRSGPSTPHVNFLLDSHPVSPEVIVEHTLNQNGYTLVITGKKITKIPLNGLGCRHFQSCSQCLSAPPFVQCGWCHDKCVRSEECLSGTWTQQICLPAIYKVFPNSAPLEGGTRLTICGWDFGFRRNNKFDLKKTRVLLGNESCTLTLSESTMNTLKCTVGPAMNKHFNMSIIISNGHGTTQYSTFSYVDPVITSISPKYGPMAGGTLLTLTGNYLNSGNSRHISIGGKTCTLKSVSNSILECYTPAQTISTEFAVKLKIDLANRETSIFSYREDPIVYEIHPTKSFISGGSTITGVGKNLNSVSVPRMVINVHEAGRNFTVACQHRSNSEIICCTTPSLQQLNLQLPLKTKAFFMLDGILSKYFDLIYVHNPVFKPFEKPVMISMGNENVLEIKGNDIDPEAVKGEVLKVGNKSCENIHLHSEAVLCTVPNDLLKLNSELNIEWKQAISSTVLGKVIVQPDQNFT

[9] = target: T9, rHuman EGF R/Fc Chimera, CF (R&D Systems Cat#344-ER) (human, UniProt P00533 25-645); test: as above
T9 construct: Bought recombinant protein; Fc part of the bought chimera not given

[10] = target: T10, rHuman P-Cadherin/Fc Chimera, CF (R&D Systems Cat#861-PC) (human, UniProt P22223 108-654); test: as above
T10 construct: Bought recombinant protein; Fc part of the bought chimera not given

[11] = target: T11, rHuman ErbB2/Fc Chimera, CF (R&D Systems Cat#1129-ER) (human, UniProt P04626 23-652); test: as above
T11 construct: Bought recombinant protein; Fc part of the bought chimera not given

[12] = target: T3, rHuman IGF-1 sR (insulin-like growth …); test: ECL multispot (MSD), antigen spotted on plate, Fab at 50.00 (column head: Fab [µM])
[13] = target: T4, rHuman Erythropoietin R/Fc Chimera, CF …; test: as above
[14] = target: T6, rHuman CD44/Fc Chimera, CF (R&D Systems …); test: as above
[15] = target: T7, Recombinant Human DLL4 (R&D Systems …); test: as above
[16] = target: T8, rHuman HGF R/c-MET/Fc Chimera, CF (R&D …); test: as above
[17] = target: T9, rHuman EGF R/Fc Chimera, CF (R&D …); test: as above
[18] = target: T10, rHuman P-Cadherin/Fc Chimera, CF (R&D …); test: as above
[19] = target: T11, rHuman ErbB2/Fc Chimera, CF (R&D …); test: as above

| Binder | ECL signal [1] | ECL signal [2] | signal/noise ratio (ECL) [3] | signal/noise ratio (ECL) [4] | signal/noise ratio (ECL) [5] | signal/noise ratio (ECL) [6] | signal/noise ratio (ECL) [7] | signal/noise ratio (ECL) [8] | signal/noise ratio (ECL) [9] | signal/noise ratio (ECL) [10] | signal/noise ratio (ECL) [11] | signal/noise ratio (ECL) [12] | signal/noise ratio (ECL) [13] | signal/noise ratio (ECL) [14] | signal/noise ratio (ECL) [15] | signal/noise ratio (ECL) [16] | signal/noise ratio (ECL) [17] | signal/noise ratio (ECL) [18] | signal/noise ratio (ECL) [19] |
| --- | --- | --- | --- | --- | --- | --- | --- | --- | --- | --- | --- | --- | --- | --- | --- | --- | --- | --- | --- |
| B1 | 557 | 1550 |  |  |  |  |  |  |  |  |  |  |  |  |  |  |  |  |  |
| B2 |  |  | 1.1 | 1.1 | 0.8 | 1.3 | 32.5 | 0.9 | 1 | 0.9 | 1 | 0.5 | 0.9 | 0.3 | 33.5 | 0.6 | 0.9 | 0.7 | 0.6 |
| B3 |  |  | 1.1 | 1.8 | 0.9 | 1.3 | 482 | 0.8 | 1.1 | 1 | 1.1 | 0.5 | 1.6 | 0.7 | 274 | 0.7 | 1 | 0.9 | 0.7 |
